Series [1] deals with T1, NC(=O)c1ccc[n+]([C@@H]2O[C@H](COP(=O)(O)OP(=O)(O)OC[C@H]3O[C@@H](n4cnc5c(N)ncnc54)[C@H](O)[C@@H]3O)[C@@H](O)[C@H]2O)c1.
T1 construct: full length; N-terminal 6xHis tag cut by TEV protease (Gly-His left before Met1); plasmid pET-TEV-EcG6PDH from pETG6PDH
The series is described as follows: purified protein. In kind it is biochemical, Escherichia coli. The note with it: 25°C, apparent.

In series [2] the test system is T2, NC(=O)c1ccc[n+]([C@@H]2O[C@H](COP(=O)(O)OP(=O)(O)OC[C@H]3O[C@@H](n4cnc5c(N)ncnc54)[C@H](OP(=O)(O)O)[C@@H]3O)[C@@H](O)[C@H]2O)c1.
T2 construct: full length; N-terminal 6xHis tag cut by TEV protease (Gly-His left before Met1); plasmid pET-TEV-EcG6PDH from pETG6PDH
The series is described as follows: purified protein. It is filed as biochemical, Escherichia coli. The note with it: 25°C, apparent.

By Km is commonly meant the substrate concentration at which the rate is half of its maximum. Broadly, the kcat is the maximal rate divided by the concentration of active sites. What is called kcat/Km is the turnover number divided by the Michaelis constant. Consider “EcG6PDH; glucose-6-phosphate dehydrogenase from Escherichia coli (Escherichia coli K-12; K18A)”, for which, in series [1] (near-saturating G6P (40 mM)), the Michaelis-Menten constant (Km) is 2.477 ± 0.26 mM, the kcat is 109 ± 2 s⁻¹ and the kcat/Km is 40000 ± 4000 M⁻¹ s⁻¹. In addition, in series [2] (near-saturating G6P (40 mM)), the Km was 0.099 ± 0.003 mM, the kcat came to 143 ± 1 s⁻¹ and the kcat/Km is 1.4e+06 ± 40000 M⁻¹ s⁻¹.
In the case of “EcG6PDH; glucose-6-phosphate dehydrogenase from Escherichia coli (Escherichia coli K-12; R50A)”, in series [1] (near-saturating G6P (50 mM)), the Km was found to be 14.662 ± 2.176 mM, the kcat came to 171 ± 10 s⁻¹ and the kcat/Km stood at 10000 ± 1000 M⁻¹ s⁻¹. Further, in series [2] (near-saturating G6P (50 mM)), the Km was determined as 0.382 ± 0.048 mM, the kcat stood at 189 ± 5 s⁻¹ and the kcat/Km was 500000 ± 60000 M⁻¹ s⁻¹.
On to “EcG6PDH; glucose-6-phosphate dehydrogenase from Escherichia coli (Escherichia coli K-12)”, for which, in series [1] (near-saturating G6P), the Km amounted to 5.09 ± 0.4 mM, the kcat came to 288 ± 5 s⁻¹ and the kcat/Km is 60000 ± 4000 M⁻¹ s⁻¹. In series [2] (near-saturating G6P), the Km was found to be 0.0075 ± 0.0008 mM, the kcat was 174 ± 2 s⁻¹ and the kcat/Km worked out at 2.32e+07 ± 2.4e+06 M⁻¹ s⁻¹.
With “EcG6PDH; glucose-6-phosphate dehydrogenase from Escherichia coli (Escherichia coli K-12; K18T)”, in series [1] (near-saturating G6P (15 mM)), the Km is 8.352 ± 0.307 mM, the kcat amounted to 298 ± 4 s⁻¹ and the kcat/Km was 30000 ± 1000 M⁻¹ s⁻¹. In series [2] (near-saturating G6P (15 mM)), the Km was 0.243 ± 0.0053 mM, the kcat is 282 ± 1 s⁻¹ and the kcat/Km is 1.1e+06 ± 30000 M⁻¹ s⁻¹.
As to “EcG6PDH; glucose-6-phosphate dehydrogenase from Escherichia coli (Escherichia coli K-12; K18A/R50A)”, in series [1] (near-saturating G6P (40 mM)), the Michaelis constant (Km) was 11.736 ± 0.804 mM, the catalytic constant (kcat) came to 165 ± 4 s⁻¹ and the kcat/Km is 10000 ± 700 M⁻¹ s⁻¹. For the same substance, in series [2] (near-saturating G6P (40 mM)), the Km amounted to 17.696 ± 1.453 mM, the kcat worked out at 185 ± 7 s⁻¹ and the catalytic efficiency (kcat/Km) is 10000 ± 900 M⁻¹ s⁻¹.

The values above are taken from article PMC4807051, “Determinants of Cofactor Specificity for the Glucose-6-Phosphate Dehydrogenase from Escherichia coli: Simulation, Kinetics and Evolutionary Studies” (PLoS ONE, 2016).
